# In US20260193366A1 (APOGEE THERAPEUTICS, published 2026):
# Substitutions are numbered along the chain they refer to.
# B1: Construct 23 (mAb431) (antibody, V domains shown)
# VH: EVQLVESGGGLEQPGGSLRLSCAGSGFTFRDFAMTWVRQAPGKGLEWVSSISGGGGSTYYADSVKGRFTISRDNSKNTLYLQMNSLRAEDTAVYYCAKDRLSVTVRPRYYGLDVWGQGTTVTVSS
# VL: DIVMTQSPLSLPVTPGEPASISCRSSQSVLYSIGKNYVDWYLQKSGQSPQLLIYLGSQRATGVPDRFSGSGSGTDFTLKISRVEAEDVGFYYCMQSLTSPYTFGQGTKLEIK
# notes: VH/VL only
# B2: Construct 39 (mAb473) (antibody, IgG4, V domains shown)
# VH: B1 VH with F32S, G54S, G56D, S57N, V103I
# VL: B1 VL with V29L, S57N, Q58K, T61S, S96A, T98G
# notes: VH/VL only
# B3: Construct 27 (mAb435) (antibody, IgG4, V domains shown)
# VH: B1 VH with R30T, G54S, S57N, T58K
# VL: B1 VL with R24T, S25A, V29L, K35Y, S57N, Q58K, T61S
# notes: VH/VL only
# B4: Construct 37 (mAb470) (antibody, IgG4, V domains shown)
# VH: B1 VH with D31T, F32Y, S57N
# VL: B1 VL with S25A, V29L, I33V, K35Y, S57N, Q58N, T61S
# notes: VH/VL only
# B5: Construct 35 (mAb467) (antibody, IgG4, V domains shown)
# VH: B1 VH with D31T, F32Y, G54S, S57N, L101V, V103I, V105I
# VL: B1 VL with R24T, V29L, L55E, S57N, Q58N
# notes: VH/VL only
# B6: Construct 36 (mAb469) (antibody, IgG4, V domains shown)
# VH: B1 VH with G54S, S57N, T58I, V103K, V105I
# VL: B1 VL with V29L, L55E, S57N, Q58N, T61S
# notes: VH/VL only
# B7: Construct 34 (mAb459) (antibody, IgG4, V domains shown)
# VH: B1 VH with G54S, G56D, S57N, T58I, V103K, V105I
# VL: B1 VL with S28G, V29L, K35Y, S57N, Q58K, T61S, S96A, T98D, S99T
# notes: VH/VL only
# B8: Construct 33 (mAb450) (antibody, IgG4, V domains shown)
# VH: B1 VH with G54S, S57N, T58I, L101V, V103I, V105I
# VL: B1 VL with R24T, S25A, V29L, K35Y, Q58K, T61S, S96A, T98G
# notes: VH/VL only
# B9: Construct 26 (mAb434) (antibody, IgG4, V domains shown)
# VH: B1 VH with V103I, T104A
# VL: B1 VL with R24T, S25A, V29L, K35Y, S57N, Q58K, T61S
# notes: VH/VL only
# B10: Construct 28 (mAb436) (antibody, IgG4, V domains shown)
# VH: B1 VH with I51V, G54S, S57N
# VL: B1 VL with R24T, V29L, K35Y, S57N, Q58K, T61S, T98Q, S99T
# notes: VH/VL only
# B11: Construct 25 (mAb433) (antibody, IgG4, V domains shown)
# VH: B1 VH with G54S, G56D, S57N, T58I, V103K, V105I
# VL: B1 VL with R24T, S25A, V29L, K35Y, V38L, L55E, S57N, Q58K, T61S
# notes: VH/VL only
# Target: T1, hIL-4Rα on cells (human, UniProt P24394 26-825)
# T1 sequence: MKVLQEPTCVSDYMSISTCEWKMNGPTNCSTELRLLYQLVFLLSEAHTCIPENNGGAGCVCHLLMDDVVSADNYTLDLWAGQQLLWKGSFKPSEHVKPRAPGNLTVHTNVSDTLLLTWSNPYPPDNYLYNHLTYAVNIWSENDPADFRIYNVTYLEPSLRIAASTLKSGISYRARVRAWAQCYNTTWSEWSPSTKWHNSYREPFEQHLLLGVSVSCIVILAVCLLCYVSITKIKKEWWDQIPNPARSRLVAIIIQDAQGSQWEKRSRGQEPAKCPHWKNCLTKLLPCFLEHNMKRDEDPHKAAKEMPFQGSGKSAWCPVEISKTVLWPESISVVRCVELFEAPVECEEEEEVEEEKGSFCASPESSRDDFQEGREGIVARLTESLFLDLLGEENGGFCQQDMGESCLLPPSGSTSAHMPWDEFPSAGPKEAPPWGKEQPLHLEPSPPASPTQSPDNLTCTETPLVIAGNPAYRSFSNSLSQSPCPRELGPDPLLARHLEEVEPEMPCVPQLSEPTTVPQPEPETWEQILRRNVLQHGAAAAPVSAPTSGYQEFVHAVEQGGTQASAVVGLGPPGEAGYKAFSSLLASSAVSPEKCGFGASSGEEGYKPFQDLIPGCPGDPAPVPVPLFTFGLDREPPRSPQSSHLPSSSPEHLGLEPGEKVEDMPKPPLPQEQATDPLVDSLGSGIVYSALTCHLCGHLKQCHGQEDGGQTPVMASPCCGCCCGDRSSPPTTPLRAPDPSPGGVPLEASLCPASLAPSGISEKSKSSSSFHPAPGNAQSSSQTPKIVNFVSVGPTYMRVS
# Assay: FACS on HEK293 cells, competitor biotin-hIL-13;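 also: stably transduced cells co-expressing both receptor chains, stained cold, with cell-bound signal read as mean fluorescence intensity by flow cytometry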
row,Binder,Relative Blockade of IL-13 Binding IC50
1,B1,0.793 relative to dupilumab
2,B2,1.05 relative to dupilumab
3,B3,0.592 relative to dupilumab
4,B4,1.05 relative to dupilumab
5,B5,1.25 relative to dupilumab
6,B6,1.22 relative to dupilumab
7,B7,1.21 relative to dupilumab
8,B8,1.21 relative to dupilumab
9,B9,0.486 relative to dupilumab
10,B10,0.611 relative to dupilumab
11,B11,1.09 relative to dupilumab

# Target: T1, hIL-4Rα on cells
# Assay: cell-based or functional assay
Binder,Relative Inhibition of IL-4 induced pSTAT6 IC50,Relative Inhibition of IL-13 induced pSTAT6 IC50
B1,0.483 relative to dupilumab,0.475 relative to dupilumab
B2,0.81 relative to dupilumab,2.17 relative to dupilumab
B3,0.676 relative to dupilumab,0.38 relative to dupilumab
B4,0.713 relative to dupilumab,1.22 relative to dupilumab
B5,0.766 relative to dupilumab,2.71 relative to dupilumab
B6,0.957 relative to dupilumab,2.16 relative to dupilumab
B7,0.464 relative to dupilumab,2.42 relative to dupilumab
B8,0.888 relative to dupilumab,1.59 relative to dupilumab
B9,0.661 relative to dupilumab,0.627 relative to dupilumab
B10,0.999 relative to dupilumab,0.497 relative to dupilumab
B11,1.33 relative to dupilumab,1.82 relative to dupilumab

# Target: T1, hIL-4Rα on cells
# Assay: cell-based or functional assay
# Remark: another data set of the same source
Binder,Relative Inhibition of IL-4 induced TF-1 Proliferation IC50,Relative Inhibition of IL-13 induced TF-1 Proliferation IC50
B1,0.823 relative to dupilumab,0.732 relative to dupilumab
B2,1.18 relative to dupilumab,1.21 relative to dupilumab
B3,0.962 relative to dupilumab,0.773 relative to dupilumab
B4,0.943 relative to dupilumab,0.919 relative to dupilumab
B5,0.948 relative to dupilumab,1.11 relative to dupilumab
B6,1.05 relative to dupilumab,1.25 relative to dupilumab
B7,1.46 relative to dupilumab,1.55 relative to dupilumab
B8,1.05 relative to dupilumab,0.926 relative to dupilumab
B9,0.7 relative to dupilumab,0.83 relative to dupilumab
B10,1.19 relative to dupilumab,0.634 relative to dupilumab
B11,2.04 relative to dupilumab,1.31 relative to dupilumab

# Target: T1, hIL-4Rα on cells
# Assay: FACS on HEK293 cells, competitor biotin-hIL-4;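 also: HEK293 cells stably co-expressing hIL-13Rα and hIL-4Rα, stained for 1 h at 4 °C, read-out as mean fluorescence intensity by flow cytometry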
# Experimental: Briefly, HEK293 previously transduced to stably express both hIL-13Rα and hIL-4Rα were cultured and harvested. Cells were seeded at 200,000 cells in 100 uL per well. Cells were washed and the supernatant discarded. […] The cells were stained in this mixture at 4° C. for 1 hour. […] Cells were incubated 4° C. for 1 hour, protected from light. Cells were then washed and the MFI of cells in each well were recorded by FACS using a BD FACSCanto II. Subsequent data were analyzed using GraphPad Prism.
row,Binder,Relative Blockade of IL-4 Binding IC50
1,B1,1.07 relative to dupilumab
2,B2,1.09 relative to dupilumab
3,B3,0.99 relative to dupilumab
4,B4,1.08 relative to dupilumab
5,B5,1.29 relative to dupilumab
6,B6,1.18 relative to dupilumab
7,B7,1.23 relative to dupilumab
8,B8,1.01 relative to dupilumab
9,B9,0.763 relative to dupilumab
10,B10,0.849 relative to dupilumab
11,B11,1.36 relative to dupilumab

# Target: T1, hIL-4Rα on cells
# Assay: cell-based or functional assay
# Remark: another data set of the same source
Binder,Relative Inhibition of IL-4 induced TARC IC50,Relative Inhibition of IL-13 induced TARC IC50
B1,0.557 relative to dupilumab,0.579 relative to dupilumab
B2,1.65 relative to dupilumab,5.23 relative to dupilumab
B3,0.547 relative to dupilumab,1.83 relative to dupilumab
B4,1.16 relative to dupilumab,0.868 relative to dupilumab
B5,1.92 relative to dupilumab,1.65 relative to dupilumab
B6,1.78 relative to dupilumab,0.999 relative to dupilumab
B7,4.32 relative to dupilumab,1.35 relative to dupilumab
B8,3.2 relative to dupilumab,1.07 relative to dupilumab
B9,0.763 relative to dupilumab,1.73 relative to dupilumab
B10,0.58 relative to dupilumab,1.81 relative to dupilumab
B11,1.17 relative to dupilumab,1.78 relative to dupilumab

# Target: T2, human IL-4Rα (human, UniProt P24394 26-232)
# T2 construct: also called Hu IL-4Rα; hIL-4Rα
# T2 sequence: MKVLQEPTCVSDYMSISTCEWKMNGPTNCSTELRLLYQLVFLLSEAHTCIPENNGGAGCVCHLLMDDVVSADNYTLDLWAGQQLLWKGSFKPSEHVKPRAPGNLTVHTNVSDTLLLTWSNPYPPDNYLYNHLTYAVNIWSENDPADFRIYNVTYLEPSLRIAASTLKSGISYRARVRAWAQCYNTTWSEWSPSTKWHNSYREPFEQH
# Assay: SPR, Carterra LSA;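 also: antibodies captured on an anti-human Fc sensor chip, antigen injected at several concentrations, association and dissociation rates fitted with a 1:1 Langmuir model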
Binder,KD Relative to Dupilumab,Kd
B1,0.67,0.00762 nM
B2,0.92,0.0104 nM
B3,1.12,0.0126 nM
B4,1.03,0.0116 nM
B5,0.99,0.0112 nM
B6,0.99,0.0112 nM
B7,1.01,0.0114 nM
B8,0.78,0.00875 nM
B9,0.78,0.00883 nM
B10,0.69,0.00777 nM
B11,0.94,0.0107 nM

# Target: T3, cynomolgus monkey IL-4Rα (cynomolgus monkey, UniProt P24394 26-231 (human entry), limits assumed)
# T3 construct: also called Cyno IL-4Rα; cyIL-4Rα
# T3 chain: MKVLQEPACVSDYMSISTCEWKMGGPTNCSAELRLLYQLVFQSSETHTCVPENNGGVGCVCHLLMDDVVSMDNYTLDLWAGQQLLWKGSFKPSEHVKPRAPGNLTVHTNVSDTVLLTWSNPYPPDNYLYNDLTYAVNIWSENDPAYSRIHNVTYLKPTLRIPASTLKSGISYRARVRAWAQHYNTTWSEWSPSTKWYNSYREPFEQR
# Assay: SPR, Carterra LSA;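 also: antibodies captured on an anti-human Fc sensor chip, antigen injected at several concentrations, association and dissociation rates fitted with a 1:1 Langmuir model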
Binder,KD Relative to Dupilumab,Kd
B1,0.1,63.3 nM
B2,0.27,168 nM
B3,0.28,176 nM
B4,0.23,143 nM
B5,0.29,180 nM
B6,0.61,385 nM
B7,0.53,334 nM
B8,0.05,33.9 nM
B9,0.26,166 nM
B10,0.09,54.7 nM
B11,1.12,703 nM
